# US20090075342
# Tested on: IgE (full length human IgE, h-IgE) (Homo sapiens), P01854-1
# Experiment: filter
# Conditions: 2'-deoxy at 6, 8, 9, 16, 18, 19, 20, 21, deoxyinosine at 16, 18, 20 (written as G), T24 = 3' inverted dT], dot-blot, DPBS with Mg and Ca, 0.1 mg/mL BSA, room temperature, 30 min
# IgE (full length human IgE, h-IgE) (Homo sapiens), P01854-1, sequence (P01854 other isoform, or with tags, fused parts or gaps): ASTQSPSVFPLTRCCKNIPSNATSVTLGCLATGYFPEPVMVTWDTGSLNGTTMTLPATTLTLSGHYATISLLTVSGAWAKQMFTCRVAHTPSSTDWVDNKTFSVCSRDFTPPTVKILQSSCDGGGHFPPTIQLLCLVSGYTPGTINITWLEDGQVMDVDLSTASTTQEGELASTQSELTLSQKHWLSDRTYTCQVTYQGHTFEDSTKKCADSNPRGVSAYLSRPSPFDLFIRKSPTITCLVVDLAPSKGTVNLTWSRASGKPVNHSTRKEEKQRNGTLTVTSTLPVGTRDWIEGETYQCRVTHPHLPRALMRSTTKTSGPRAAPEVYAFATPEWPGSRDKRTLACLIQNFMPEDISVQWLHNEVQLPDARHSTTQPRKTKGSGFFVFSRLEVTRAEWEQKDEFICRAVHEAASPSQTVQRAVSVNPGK
sequence,measurement,setting,value
AGCCUGGGGACCCAUGGGGGGCU [ARC1666],Kd,"2'-OMe at A1 G2 C3 C4 U5 G7 A10 C11 C12 C13 A14 U15 G17 C22 U23, 2'-deoxy at G6 G8 G9 I16 I18 G19 I20 G21, n = deoxyinosine, PS between 8-9, 15-16, 16-17, 18-19, 20-21, 3' 3T cap (inverted dT) [2'-OMe at 1-5, 7, 10-15, 17, 22, 23",0.035 nM
AGCCUGGGGACCCAUGGGGGGCU [ARC2982],Kd,"as ARC1666 (2'-OMe/2'-deoxy/deoxyinosine, 3' 3T cap) with PS between 8-9, 15-16, 16-17, 17-18, 18-19, 20-21 [2'-OMe at 1-5, 7, 10-15, 17, 22, 23, PS between 8-9, 15-16, 16-17, 17-18, 18-19, 20-21",0.03 nM
AGCCUGGGGACCCAUGGGGGGCU [ARC2983],Kd,"as ARC1666 (2'-OMe/2'-deoxy/deoxyinosine, 3' 3T cap) with PS between 8-9, 15-16, 16-17, 18-19, 19-20, 20-21 [2'-OMe at 1-5, 7, 10-15, 17, 22, 23, PS between 8-9, 15-16, 16-17, 18-19, 19-20, 20-21",0.02 nM
AGCCUGGGGACCCAUGGGGGGCU [ARC3901],Kd,"as ARC1666 (2'-OMe/2'-deoxy/deoxyinosine, 3' 3T cap) with PS between 8-9, 15-16, 16-17, 17-18, 18-19, 19-20, 20-21 [2'-OMe at 1-5, 7, 10-15, 17, 22, 23, PS between 8-9, 15-16, 16-17, 17-18, 18-19, 19-20, 20-21",0.13 nM
